As a reminder, the stoichiometry N is a count of units in the complex or per binding partner.

The values that follow come from article PMC6851300, “Calcium-activated chloride channel regulator 1 (CLCA1) forms non-covalent oligomers in colonic mucus and has mucin 2–processing properties” (The Journal of Biological Chemistry, 2019).

In data set [1] the target is 250-kDa (nonreduced) fragment of MUC2-N after cleavage by rCLCA1, D′–D3 and CysD (human). Nature of the data set: non-reducing SDS-PAGE with SYPRO Ruby stain and immunoblot; recombinant MUC2-N with or without in vitro cleavage by rCLCA1 fractions (18 h, 37 C, 20 mM Tris-HCl pH 7.5, 150 mM NaCl, 10 mM CaCl2), separated without DTT; D3 (MUC2-N3) antibody. In general terms: Immunoblotting shows a protein as a band on a membrane.

Data set [2] has as its target C-terminal cleavage product of mouse Clca1 in distal colon mucus and epithelium (mouse (endogenous in colon)) (UniProt Q9D7Z6). Nature of the data set: non-reducing SDS-PAGE with immunoblot; mucus and epithelial lysate from mouse distal colon or human sigmoid colon, denatured in SDS sample buffer without DTT (non-reduced) against with 100 mM DTT (reduced), blotted with C-terminal CLCA1 antibodies; shows disulfide-linked species only.

Data set [3] has as its target Human CLCA1 in sigmoid colon mucus and epithelial lysate (N- and C-terminal products) (human (endogenous in sigmoid colon)) (UniProt A8K7I4). The data set can be described thus: native gel or EMSA; NativePAGE Novex Bis-Tris 4-16% with G-250; mucus and epithelial lysates from human sigmoid colon, WT and Clca1-/- mouse colon and desalted medium with rCLCA1; blotted with N- or C-terminal CLCA1 antibodies. In general terms: A gel shift assay detects complexes by their altered migration in electrophoresis.

The target of data set [4] is Mouse Clca1 in colonic mucus and epithelial lysate (N- and C-terminal products) (mouse (endogenous in colon)) (UniProt Q9D7Z6). The description is as above.
Data set [5] deals with C-terminal cleavage product of recombinant human CLCA1 in supernatant of transfected CHO-K1 cells (human) (UniProt A8K7I4). The data set can be described thus: non-reducing SDS-PAGE with immunoblot; supernatant from hCLCA1-transfected CHO-K1 cells, reducing or nonreducing sample buffer, blotted with C terminus (3-ar) antibody; shows disulfide-linked species only.
Data set [6] deals with Recombinant human CLCA1 in spent supernatant of rCLCA1-expressing CHO-K1 cells (N- and C-terminal products) (human) (UniProt A8K7I4). The data set can be described thus: native gel or EMSA; NativePAGE Novex Bis-Tris 4-16% with G-250; mucus and epithelial lysates from human sigmoid colon, WT and Clca1-/- mouse colon and desalted medium with rCLCA1; blotted with N- or C-terminal CLCA1 antibodies.

The target of data set [7] is C-terminal cleavage product of human CLCA1 in sigmoid colon mucus and epithelium (human (endogenous in sigmoid colon)) (UniProt A8K7I4). Nature of the data set: non-reducing SDS-PAGE with immunoblot; mucus and epithelial lysate from mouse distal colon or human sigmoid colon, denatured in SDS sample buffer without DTT (non-reduced) against with 100 mM DTT (reduced), blotted with C-terminal CLCA1 antibodies; shows disulfide-linked species only.

Data set [8] deals with the molecule itself. Nature of the data set: non-reducing SDS-PAGE with immunoblot; supernatant from hCLCA1-transfected CHO-K1 cells, reducing or nonreducing sample buffer, blotted with C terminus (3-ar) antibody; shows disulfide-linked species only.

Consider “250-kDa (nonreduced) fragment of MUC2-N after cleavage by rCLCA1, D′–D3 and CysD (domain or fragment)”, for which the stoichiometry N in data set [1] turned out to be 3.
“C-terminal cleavage product of mouse Clca1 in distal colon mucus and epithelium (from UniProt Q9D7Z6 22-913) (domain or fragment)” returned a stoichiometry N in data set [2] of 2.
“Human CLCA1 in sigmoid colon mucus and epithelial lysate (N- and C-terminal products) (from UniProt A8K7I4 22-914; A8K7I4 22-914) (complex)”: in data set [3], the stoichiometry N amounted to 8.
On to “Mouse Clca1 in colonic mucus and epithelial lysate (N- and C-terminal products) (from UniProt Q9D7Z6 22-913; Q9D7Z6 22-913) (complex)”, for which the stoichiometry N in data set [4] worked out at 8.
Consider “C-terminal cleavage product of recombinant human CLCA1 in supernatant of transfected CHO-K1 cells (from UniProt A8K7I4 22-914) (domain or fragment)”, for which the stoichiometry N in data set [5] came to 2.
Turning to “Recombinant human CLCA1 in spent supernatant of rCLCA1-expressing CHO-K1 cells (N- and C-terminal products) (from UniProt A8K7I4 22-914; A8K7I4 22-914) (complex)”, the stoichiometry N in data set [6] turned out to be 8.
“C-terminal cleavage product of human CLCA1 in sigmoid colon mucus and epithelium (from UniProt A8K7I4 22-914) (domain or fragment)” showed a stoichiometry N in data set [7] of 2.

B1: Uncleaved recombinant human CLCA1 secreted from transfected CHO-K1 cells (natural protein, UniProt A8K7I4 22-914, looked up)
chain: NSLIQLNNNGYEGIVVAIDPNVPEDETLIQQIKDMVTQASLYLLEATGKRFYFKNVAILIPETWKTKADYVRPKLETYKNADVLVAESTPPGNDEPYTEQMGNCGEKGERIHLTPDFIAGKKLAEYGPQGRAFVHEWAHLRWGVFDEYNNDEKFYLSNGRIQAVRCSAGITGTNVVKKCQGGSCYTKRCTFNKVTGLYEKGCEFVLQSRQTEKASIMFAQHVDSIVEFCTEQNHNKEAPNKQNQKCNLRSTWEVIRDSEDFKKTTPMTTQPPNPTFSLLQIGQRIVCLVLDKSGSMATGNRLNRLNQAGQLFLLQTVELGSWVGMVTFDSAAHVQNELIQINSGSDRDTLAKRLPAAASGGTSICSGLRSAFTVIRKKYPTDGSEIVLLTDGEDNTISGCFNEVKQSGAIIHTVALGPSAAQELEELSKMTGGLQTYASDQVQNNGLIDAFGALSSGNGAVSQRSIQLESKGLTLQNSQWMNGTVIVDSTVGKDTLFLITWTMQPPQILLWDPSGQKQGGFVVDKNTKMAYLQIPGIAKVGTWKYSLQASSQTLTLTVTSRASNATLPPITVTSKTNKDTSKFPSPLVVYANIRQGASPILRASVTALIESVNGKTVTLELLDNGAGADATKDDGVYSRYFTTYDTNGRYSVKVRALGGVNAARRRVIPQQSGALYIPGWIENDEIQWNPPRPEINKDDVQHKQVCFSRTSSGGSFVASDVPNAPIPDLFPPGQITDLKAEIHGGSLINLTWTAPGDDYDHGTAHKYIIRISTSILDLRDKFNESLQVNTTALIPKEANSEEVFLFKPENITFENGTDLFIAIQAVDKVDLKSEISNIARVSLFIPPQTPPETPSPDETSAPCPNIHINSTIPGIHILKIMWKWIGELQLSIA
modifications: glycosylated
notes: human CLCA1, full-length construct, not cut at the self-cleavage site (120 kDa); also called uncleaved rCLCA1; uncleaved CLCA1; source: CHO-K1, transfected, in supernatant
In the case of B1, the “stoichiometry N” value in data set [8] was found to be 2.
